± gives the uncertainty stated by the source.

A short description of this data set: amyloid nucleation score (Sup35N fusion, yeast selection) (log enrichment); library NNK1; higher = more nucleation; inactive = no reads after selection. An outline of the steps:
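The nucleation score is the DiMSum log enrichment of output over input reads, centred on the mode score of non-aggregating sequences. Only sequences with 100 or more input reads were scored, using Illumina sequencing of input and output plasmid inserts. Psi-negative yeast expressing Sup35N fused to peptides of 20 random codons were induced 24 hours with 100 μM copper sulfate and grown 7 days at 30°C on medium lacking adenine and uracil.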
PSSHWIAPNFVVN: the amyloid nucleation score result was “inactive”.
As for PSTRRVGDWDFLTSSTGRTM, the figure is -0.403 ± 0.35; as for PTFFHNCVDTFRSS, -0.026 ± 0.47; as for PTLLALYGG, -0.414 ± 0.61.
As for PVCFAFQFRATPNMQVHQPS, the amyloid nucleation score is -0.108 ± 0.75.
PVDNLFNFLSGSCAISNFQK showed an amyloid nucleation score of 0.638 ± 0.58.
Substance PVDVGYIRIPP showed an amyloid nucleation score of 0.093 ± 0.87.
With PVHVLYFTWMNQECCGHNYL the figure was 6.5 ± 0.07; with PVLPDDLNARREYSGCIKYL, 0.765 ± 0.55.
For PVLRTSWTCWA, the amyloid nucleation score was -0.254 ± 0.6.
As for PWCFTLFALAPP, the figure is -0.077 ± 1.7.
Regarding PWCQVRHSSYRASWSSVVVN, the amyloid nucleation score was -0.254 ± 0.48.
With PWDYVSLSI the figure was -0.424 ± 0.73; with PWFIYDSLGFNSRCRSHLIK, -0.069 ± 0.88.
As for PWNLLGKIVTFV, the figure is 1.09 ± 0.94; as for PWPVSFYFMVNIVWCGRVIL, 1.06 ± 0.26.
Substance PYPYAISRYVFMVSNSDMFM registered an amyloid nucleation score of 4.53 ± 0.054.
With PYVGHVGVKRDSNCK the figure was 0.206 ± 1.1; with QANVDCNVHPVTRML, 0.085 ± 0.46.
With QCDRILSDLYNCSGYNRNTK the figure was -0.522 ± 0.74; with QCRERLYPHPGLI, 1.01 ± 0.37; with QCRITDSFCSGA, -0.163 ± 0.45.
As for QCRQAQLVLFGVSVWTGYVK, the figure is -0.083 ± 0.38; as for QDFNNEFFFSCRAAAKTTNA, -1.54 ± 1.7; as for QDIARPRYIPSNNRKKTREP, -1.35 ± 1.9.
For QDQSGPVLASCIWYLCSETN, the amyloid nucleation score was 7.403 ± 0.052.
With QEGRSFRGYTMVKYVFISRY the figure was 1.38 ± 0.5; with QEINGKAQWSPIHSISTMAA, 0.33 ± 0.51; with QEPCGW, -0.172 ± 0.29.
As for QESVGSNRRVVGDNASLRLL, the figure is -0.211 ± 0.86; as for QFKFINVDEAHT, 0.297 ± 1.2.
With QFRGLDLCLRIRRLVAYTGI the figure was 0.285 ± 0.64.
Regarding QGLSYFDCSDWLNYLFFKSY, the amyloid nucleation score was found to be 0.126 ± 0.27.
As for QGMQICHQKHGAWSGYNGRE, the figure is -0.379 ± 0.29.
Turning to QGRTRSYY, the amyloid nucleation score is -0.301 ± 0.82.
Consider QGSIHY, for which the amyloid nucleation score result was “inactive”.
As for QIFVWAFPPSGVSGHVWSRD, the figure is 6.497 ± 0.049; as for QIKVTGRRSSDEGSQGGWLL, 3.82 ± 0.081.
With QLAAWSGFN the figure was 0.522 ± 0.28; with QLELWVSLRCISWLQILRIL, 1.06 ± 0.53.
Take QLGQAICRSLYNVRSYMQGF: the amyloid nucleation score entry was “inactive”.
With QLKGSSWYYENRVGRSGRGV the figure was 0.698 ± 0.49.
With QLLPISGKVWAVISSGLG the figure was -0.029 ± 0.32.
QLNFYIR: the amyloid nucleation score was determined as 8.212 ± 0.061.
As for QLRAYEFGWETREELNSRPY, the figure is -1.64 ± 2.4; as for QLRGWQYSKATREVDSREDR, 0.646 ± 0.79; as for QLSLGHNFLCYVMSMRVREV, “inactive”.
As for QLVTVADLLTKFPGILSWSG, the entry is “inactive”; as for QMREFCLNACSINPRFLWAS, 1.51 ± 0.31; as for QMSKPARTLKSVRGPLDLRI, -0.389 ± 0.61.
With QNKVCNCDRVFTRFIESNSL the figure was -0.254 ± 0.38; with QNQSFLINPWQGSKLVDPTA, 0.253 ± 0.53.
The substance QNVACSMH yielded an amyloid nucleation score of 0.093 ± 0.57.
As for QPLLTQQK, the figure is 0.086 ± 0.28; as for QPNNGVPQIMDTV, 0.184 ± 0.43; as for QPSGLGAECYM, 0.423 ± 1.4.
For the substance QQSQC, the amyloid nucleation score entry is “inactive”.
QRMFFYNIIVWNVN: the amyloid nucleation score was 2.79 ± 0.14.
With QSLFFPFARFVTNILRYYKF the figure was -0.531 ± 0.45; with QSPISDCSGQSSCRMCQRYG, 0.408 ± 0.2; with QSSYVLCHFILE, -0.219 ± 1.2.
As for QSVCSTCSRGPSHCAAGSV, the figure is 0.17 ± 0.31; as for QSYTLYMMSLFKS, -0.34 ± 0.55.
As for QTRWWEYHHNLFVLQITFGG, the figure is 1.04 ± 0.27.
Regarding QVARLLSHAMWLVGKTL, the amyloid nucleation score result was “inactive”.
As for QVNRSVDFPSRFIKSY, the figure is -0.687 ± 1.4; as for QVNVN, 0.19 ± 0.5.
With QVRRRVGILRLWFEKWVIGR the figure was 0.372 ± 0.77.
As for QVSCSGFYRRDLSSRL, the figure is 0.614 ± 0.56; as for QWQIDMIPRCLGDMNLIVLQ, “inactive”; as for QYFPF, -1.26 ± 1.2.
In turn, QYLLFGYNYNAWERRDLALW had an amyloid nucleation score of 0.354 ± 0.22.
As for QYNTLCFGMSTGYLYLNISS, the figure is 2.83 ± 0.19.
With QYRHRGRQHLMGGNAQCPYV the figure was 0.477 ± 0.66; with RACYTCVPVSGSRMSVRNLW, 3.19 ± 0.13; with RAKLFHWLNWR, 0.282 ± 0.67.
In the case of RALCLWTCKSYMFRN, the amyloid nucleation score was -0.13 ± 1.1.
As for RALLMTMKFNKMGSFNIESN, the figure is 1.77 ± 0.2.
As to RARCFHSSLVVRLLRQTAER, the amyloid nucleation score was found to be 0.192 ± 1.
Substance RAVVW displayed an amyloid nucleation score of 0.695 ± 0.8.
With RCCSFRLYLFTEG the figure was 4.78 ± 0.068; with RCDNAQLHIFVHLFRSVSDM, “inactive”; with RCGRSVVDGLRCFRLRMAFG, -1.06 ± 1.2.
As for RCHESARKVTSGMCCSGWC, the figure is 4.12 ± 0.088; as for RCHTLFIVSLYRRVRNHMSC, 0.558 ± 0.79.
Consider RCLSQNYCLSLASRLEHMCI, for which the amyloid nucleation score is 0.572 ± 1.1.
With RCRPKVWACS the figure was -0.102 ± 1; with RDAVFGPAGVLQI, -0.122 ± 1.6; with RDCFIRGKWCTCWHWCEGGE, 1.34 ± 0.27.
With RDFRYCFRCVIINMHRDHFQ the figure was 3.99 ± 0.06.
With RDFYCFWLG the figure was 4.05 ± 0.08; with RDIILGVLDRCSHCKNRALI, 0.223 ± 0.62.
The substance RDRCT yielded an amyloid nucleation score of 0.49 ± 0.36.
With RDSLESTVGVKMGNASGVCR the figure was -0.818 ± 1.6; with REDPIALGSRWTRPISKTLG, 0.734 ± 0.97.
With REEKV the figure was 0.068 ± 0.42.
RESDFYTLDLRQVMISAEPL returned an amyloid nucleation score of 0.158 ± 0.36.
As for RFANMLNVFENV, the figure is -0.179 ± 0.26.
Substance RFAVCTNFANIFRLQEDQIR yielded an amyloid nucleation score of 0.481 ± 0.33.
With RFETRTL the figure was 0.93 ± 0.31; with RFFGKYSTEGLNL, 0.992 ± 0.76.
With RFGTY the figure was -0.067 ± 0.94; with RFLSSALRARRYSRPVPLVM, 1.13 ± 0.76; with RFLVFPRFCCTRNKPRSETL, 0.616 ± 1.2.
RFNNDMTSLLSGRIAMEYSY showed an amyloid nucleation score of -0.344 ± 0.62.
RFQTGPTLCSPQTEWPVLLN returned an amyloid nucleation score of 0.987 ± 0.56.
As for RFRVCCNRSKRGGYGPNVER, the figure is -0.363 ± 0.67; as for RFRVVNSCSTKPLLNEKLFG, “inactive”.
With RFSMFRQFRSDLGCFPIMVP the figure was 0.254 ± 0.72; with RFYIMYLSGCAKTSFCGFVS, 6.4 ± 0.079; with RGCMAQDSNLYKHVSARTGD, -0.179 ± 1.6.
With RGDLCGSRIFLWFALPVN the figure was -0.726 ± 0.62; with RGGTMGYILDNKCQNFVGTW, “inactive”; with RGHAFLFVLYTFQLKAYAS, -0.033 ± 0.3.
As to RGILLSPSLLVYRLTT, the amyloid nucleation score was -0.096 ± 1.2.
With RGINSFLMSFALCWAHWRGV the figure was -0.072 ± 0.37; with RGLSNA, 0.664 ± 0.48; with RGNANIVEDSLFVVIGGRKV, 4.25 ± 0.074.
For the substance RGSKRTVKLNSGVRVKSYDW, the amyloid nucleation score was 0.373 ± 1.4.
With RGVARWRCGNKICNA the figure was 0.078 ± 0.47.
With RGVHVHRFVLLAMMKFQFGS the entry was “inactive”.
As for RGVLFVAINW, the figure is 2.47 ± 0.31; as for RGYLAWLSGDQA, 1.68 ± 0.52; as for RGYQTSGLT, -0.756 ± 2.4.
Take RHFLFLLWARPTTCSIFMVG: the amyloid nucleation score was -0.454 ± 0.77.
In turn, RHLMLVKYVFGSRELGL registered an amyloid nucleation score of 0.169 ± 0.25.
As for RHLRVTFNSLSWRKMKAGVV, the figure is -0.314 ± 0.86.
As for RHTGPIMLSWDAKGRGK, the figure is 0.622 ± 0.44; as for RHYSARQWQIWGFCDLPHSR, 0.086 ± 0.66; as for RICKGIAGKSENCNTLYNSS, “inactive”.
With RIIGHLKFIMIRNNVSLCDM the figure was -0.146 ± 0.5; with RIKHERLIVFVMNLDINQ, 4.3 ± 0.096.
As for RILSDDDVARQNGNDDNLYP, the amyloid nucleation score was found to be 3.22 ± 0.092.
With RINLVSVYDRSNDKVSIPS the figure was 0.454 ± 0.55.
The substance RIRTIPFAPRNESPRCIGKF returned an amyloid nucleation score of -1.5 ± 0.86.
With RIVISCRFEYGLGVGSSGVP the figure was 0.156 ± 1.6; with RIVRRFAGLISSI, “inactive”.
Turning to RKASWRWMSSMSNVGWTCPN, the amyloid nucleation score was 4.67 ± 0.12.
With RKESDNDFSTCVTWQNRHPD the figure was 0.529 ± 0.74; with RKGSMWFCRCLVRMRHRALP, -0.295 ± 0.76.

For the origin of these results see the supplement of paper PMC12042874.
